Test results as given in publication PMC5748976 (The Journal of Cell Biology, 2018).

Columns and labels:
[1] = target: recombinant His-tagged Pyk2 (proline-rich tyrosine kinase 2) (UniProt Q14289 1-1009); assay: pull-down
[2] = target: recombinant His-tagged FAK (focal adhesion kinase) (UniProt Q05397 1-1052); assay: pull-down
recombinant His-tagged FAK (focal adhesion kinase), sequence (Q05397 whole entry): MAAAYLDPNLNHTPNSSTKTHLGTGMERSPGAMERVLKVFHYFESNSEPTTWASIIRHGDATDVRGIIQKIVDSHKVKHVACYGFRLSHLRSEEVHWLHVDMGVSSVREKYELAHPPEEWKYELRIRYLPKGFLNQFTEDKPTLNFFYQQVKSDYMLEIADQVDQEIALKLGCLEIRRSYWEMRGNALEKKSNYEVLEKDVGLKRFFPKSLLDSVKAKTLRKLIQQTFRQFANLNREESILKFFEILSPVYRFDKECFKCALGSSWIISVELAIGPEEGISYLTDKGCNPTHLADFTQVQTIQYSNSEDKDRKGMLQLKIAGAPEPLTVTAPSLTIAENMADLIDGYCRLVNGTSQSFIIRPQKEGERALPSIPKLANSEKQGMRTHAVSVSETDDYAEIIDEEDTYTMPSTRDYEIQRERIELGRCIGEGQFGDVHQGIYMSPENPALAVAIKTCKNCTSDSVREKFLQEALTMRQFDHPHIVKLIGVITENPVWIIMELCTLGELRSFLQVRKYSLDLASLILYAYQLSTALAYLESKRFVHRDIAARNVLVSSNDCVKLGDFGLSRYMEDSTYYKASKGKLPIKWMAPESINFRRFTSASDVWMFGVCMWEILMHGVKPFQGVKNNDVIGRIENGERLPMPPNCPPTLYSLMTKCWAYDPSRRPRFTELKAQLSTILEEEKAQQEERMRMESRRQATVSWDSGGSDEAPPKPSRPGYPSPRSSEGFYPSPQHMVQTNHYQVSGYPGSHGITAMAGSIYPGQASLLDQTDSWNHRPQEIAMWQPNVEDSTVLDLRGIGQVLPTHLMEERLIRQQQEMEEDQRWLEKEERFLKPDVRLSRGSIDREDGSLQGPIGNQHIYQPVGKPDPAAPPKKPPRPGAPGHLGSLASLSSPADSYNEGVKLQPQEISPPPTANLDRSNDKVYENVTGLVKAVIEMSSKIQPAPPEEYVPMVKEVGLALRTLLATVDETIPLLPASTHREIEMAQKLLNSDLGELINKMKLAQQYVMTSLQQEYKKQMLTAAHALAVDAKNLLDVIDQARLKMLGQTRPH

recombinant His-tagged Pyk2 (proline-rich tyrosine kinase 2), sequence (Q14289 whole entry): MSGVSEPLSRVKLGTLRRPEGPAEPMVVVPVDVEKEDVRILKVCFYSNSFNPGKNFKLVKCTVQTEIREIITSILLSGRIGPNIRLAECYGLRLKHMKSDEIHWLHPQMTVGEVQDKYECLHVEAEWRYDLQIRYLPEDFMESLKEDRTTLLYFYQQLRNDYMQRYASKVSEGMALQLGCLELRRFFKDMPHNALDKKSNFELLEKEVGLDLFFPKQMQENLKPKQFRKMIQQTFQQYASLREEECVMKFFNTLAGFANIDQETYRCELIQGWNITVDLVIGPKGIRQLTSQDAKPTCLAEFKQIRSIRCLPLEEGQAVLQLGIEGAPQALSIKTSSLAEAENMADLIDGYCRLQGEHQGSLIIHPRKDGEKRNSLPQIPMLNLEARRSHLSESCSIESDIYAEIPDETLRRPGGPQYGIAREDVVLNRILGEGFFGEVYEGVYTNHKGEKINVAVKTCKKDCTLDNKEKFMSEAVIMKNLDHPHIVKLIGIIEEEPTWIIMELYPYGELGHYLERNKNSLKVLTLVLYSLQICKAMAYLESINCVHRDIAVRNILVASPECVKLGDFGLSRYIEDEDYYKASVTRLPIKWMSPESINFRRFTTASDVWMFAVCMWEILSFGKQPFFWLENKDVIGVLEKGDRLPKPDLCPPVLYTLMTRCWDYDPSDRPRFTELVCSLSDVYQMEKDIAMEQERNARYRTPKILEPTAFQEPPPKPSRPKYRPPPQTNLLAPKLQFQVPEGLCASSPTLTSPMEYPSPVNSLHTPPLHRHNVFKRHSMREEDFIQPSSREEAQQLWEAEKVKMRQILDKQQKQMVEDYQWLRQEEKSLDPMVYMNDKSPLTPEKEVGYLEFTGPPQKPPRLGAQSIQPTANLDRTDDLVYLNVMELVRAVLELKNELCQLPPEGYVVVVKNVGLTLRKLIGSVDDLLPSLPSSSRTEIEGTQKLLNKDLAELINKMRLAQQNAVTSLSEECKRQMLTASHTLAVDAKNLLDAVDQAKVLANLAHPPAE

B1: recombinant His-tagged cortactin (natural protein)
chain: not shown
B1 was tested, and the Kd [1] was 490 ± 138 nM and the Kd [2] was 2160 ± 683 nM.
